Assay results as given in paper PMC8241838.

Target: trimeric fusion protein PA-sfGFP-tLM511, O15230;P07942;P11047
Test: flow cytometry on cells
Conditions: 0.5 mM Mn2+; for response (arbitrary units/cell): 30 nM sfGFP-tLM511, parent: est. 3.0, read off a plot

| Substance | response (arbitrary units/cell) | ratio to parent |
| --- | --- | --- |
| human α6β1 integrin transiently expressed on Expi293F cells, wild type (from UniProt P05556) α6:D205A | 1.4 | 4.8 |
| human α6β1 integrin transiently expressed on Expi293F cells, wild type (from UniProt P05556) α6:E219A |  | 10.7 |
| human α6β1 integrin transiently expressed on Expi293F cells, wild type (from UniProt P05556) α6:E221A | 2.1 | 2.6 |
